We go through 33 molecules from US20220119472A1 (ORIONIS BIOSCIENCES, published 2022).

Changes are numbered by the printed parent chain.

T1: recombinant His6-tagged extracellular domain of human Clec4C (C-type lectin domain family 4, member C) (human, UniProt Q8WTT0 44-213)
T1 construct: Same antigen for immunisation, panning and ELISA; also called His-Clec4C(EC); pMET7-SIgK-His-Clec4C(EC)
T1 sequence: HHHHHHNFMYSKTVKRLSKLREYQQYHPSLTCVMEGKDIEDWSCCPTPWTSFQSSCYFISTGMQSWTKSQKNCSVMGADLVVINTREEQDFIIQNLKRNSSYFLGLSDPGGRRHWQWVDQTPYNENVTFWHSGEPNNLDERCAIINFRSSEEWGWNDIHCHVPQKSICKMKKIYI

B1: 2CL43 (VHH)
VHH: QVQLQESGGGTVQPGESLRLSCEVSTDTFSSLAMAWFRQATGKDREFVAAISWSGASTVYGDSVKGRFTMTRDHPKKMVYLQMDNLKPEDTAVYYCAGDLDGRTWHGDDLEYDYWGQGTQVTVSS
notes: pMECS VHH-HA-His6; TG1 periplasmic extract
B2: 2CL89 (VHH)
VHH: B1 VHH with G42A, A56D
notes: as for B1
B3: 2CL82 (VHH)
VHH: B1 VHH with T11L, E16G, D44E
notes: as for B1
B4: 2CL72 (VHH)
VHH: QVQLQESGGGLVQPGGSLKLSCAASGSTFRHHAMAWFRQTPGKEREFVSAINDHGDRTKYLDSVRGRFTISRDNTDNMVYLQMSDLRPEDTAVYSCAAGPLVDYLETTPLVYTYWGQGTQVTVSS
notes: as for B1
B5: 2CL87 (VHH)
VHH: B4 VHH with K19R, A24G, L61T
notes: as for B1
B6: 2CL95 (VHH)
VHH: B4 VHH with A24G, R30K, Q39H, L61S, S71A, S84D, R87L, V93N, S95T
notes: as for B1
B7: 2CL41 (VHH)
VHH: B4 VHH with P14A, K19R, P88T, S95T
notes: as for B1
B8: 2CL90 (VHH)
VHH: B4 VHH with P14A, K19R, E44G
notes: as for B1
B9: 2CL78 (VHH)
VHH: B4 VHH with L11V, N74D, P88T, S95T
notes: as for B1
B10: 2CL88 (VHH)
VHH: B4 VHH with A23T, A24G, S49A, V93N
notes: as for B1
B11: 1CL25 (VHH)
VHH: B4 VHH with K19R, Q82L
notes: as for B1
B12: 1CL2 (VHH)
VHH: QVQLQESGGGLVQAGDSLRLSCAASGDTFSMYAMGWFRQAPGKEREFVAAISRSGGSTDYRDSVKGRFTISRDNDLNAGYLQMNSLKPEDTAVYYCALRLTFSTTTAYTGELQYPYWGQGTQVTVSS
notes: as for B1
B13: 2CL58 (VHH)
VHH: B12 VHH with G56S, D59N, A107T
notes: as for B1
B14: 1CL32 (VHH)
VHH: B12 VHH with A33T, D59N
notes: as for B1
B15: 2CL73 (VHH)
VHH: B12 VHH with D27N, D59N, S85N, T106D, E111K
notes: as for B1
B16: 2CL7 (VHH)
VHH: QVQLQESGGGLVQAGDSLRLSCAPSGFTFDGYAIGWFRQAPGKEREKVACINKSDGLTYYEDSVKGRFTISSDTAKNTIHLQMNSLKPDDTAVYYCAAAWECDYAPADFGSWGQGTQVTVSS
notes: as for B1
B17: 2CL18 (VHH)
VHH: B16 VHH with D16G
notes: as for B1
B18: 2CL21 (VHH)
VHH: QVQLQESGGGLVQAGGSLRLSCAASGRTFTGYAMGWFRQVPGLEREFVARISRSGNSTGYADSVKGRFTVSRDNAKSTMYLQMNSLKTEDTAVYYCAATTSWLPGHNANVYDYWGQGTQVTVSS
notes: as for B1
B19: 2CL30 (VHH)
VHH: B18 VHH with L11S, T30S, G31D, N56D, S77N, M79V
notes: as for B1
B20: 2CL71 (VHH)
VHH: QVQLQESGGGLVQAGGSLRLSCAASGLTFGRYAMGWFRQVPGLEREFIARISRSGDNTGYADSVKGRFTVSRDSAKSTVYLQMNSLKTEDTAVYYCAAGTSWVPGHNANAYDYWGQGTQVTVSS
notes: as for B1
B21: 2CL84 (VHH)
VHH: QVQLQESGGGSVQAGGSLRLSCAASGRTFSDYAMGWFRQAPGKEREFVATISKSGSSTDYADSAKGRFTISRDNAKKTVYLQINSLKTEDTAVYYCAARLSFDNTAFYTSAIRYSDWGQGTQVTVSS
notes: as for B1
B22: 2CL92 (VHH)
VHH: B21 VHH with G16D, D31G, K53T, D59Y, A64V, T78S, T91A, D116Y
notes: as for B1
B23: 1CL82 (VHH)
VHH: QVQLQESGGGSVQAGDSLRLSCVAPGREISSPAMGWFRQAPGKEREFVATINWSSGATLTADSVKGRFTIFKDVEKNTVYLQMNSLRPEDTAVYSCAAGATGVFRIARAYSYWGQGTQVTVSS
notes: as for B1
B24: 2CL59 (VHH)
VHH: QVQLQESGGGLVQPGDSLTLSCADSGRTFSNYAMGWFHQAPGKEREFVAAISTSGGSTAYADSVKGRFTISRDNAKNTVYLQMNNLKPEDTAVYYCAARLSFSGSSYYQGPLQYPYWGQGTQVTVSS
notes: as for B1
B25: 2CL26 (VHH)
VHH: QVQLQESGGGWVQPGDSLRLSCAASGFTFSDYAVGWFRQAPGKEREFVARITRLGNGPYYSASVKGRFTISRDNARDMAYLKMDALTPEDTATYYCAAGRTLASTHDTKTSPQTYDYWGLGTQVTVSS
notes: as for B1
B26: 2CL55 (VHH)
VHH: B25 VHH with F27S, L120Q
notes: as for B1
B27: 1CL54 (VHH)
VHH: QVQLQESGGGLAQAGASLRLSCAGSGNNFEHYAVAWFRQDAPGKERDFVAAIRDYGDRTRYDDSVKGRFTISRDNAKSMVYLEMNNLKPKDAAVYYCAAGPLNDYLEVTPLVYTYWGQGTQVTVSS
notes: as for B1
B28: 2CL52 (VHH)
VHH: B27 VHH with D40E, D62A, K90E, A92T, A98T
notes: as for B1
B29: 1CL47 (VHH)
VHH: QVQLQESGGGLVQAGGSRRLSCAASGRTFINYAMGWFRQAPGKEREFVAAISTSGSNTYLADSLKARFTISRDNAKNTVYLQIRSLNPEDTAVYYCAARLSFDDSAYYTSTLRYAYWGQGTQVTVSS
notes: as for B1
B30: 1CL48 (VHH)
VHH: QVQLQESGGGLVQPGGSLRLSCVGSGSTFRHHAMAWFRQTAGKEREFVSAINNHGTKTRYSDSVRGRFTISRDNDENMVYLQMDNLRPEDTAVYSCAAGPLVDYLETVPVVYTYWGQGTQVTVSS
notes: as for B1
B31: 2CL4 (VHH)
VHH: B30 VHH with L20I, V23A, N53D, P88S, V93N, S95T
notes: as for B1
B32: 2CL8 (VHH)
VHH: B30 VHH with R19K, V23A, M34L, G42E, N53D, E76G
notes: as for B1
B33: 1CL21 (VHH)
VHH: B30 VHH with Q13R, A41T, N53D
notes: as for B1

For one assay, the target named is T1, recombinant His6-tagged extracellular …. In words: ELISA, antigen-coated vs uncoated blocked wells. An excerpt:
(§1) In total, 190 colonies from rounds 1 and 2 were randomly selected and analyzed by ELISA for the presence of antigen-specific VHH in their periplasmic extracts (ELISA using crude periplasmic extracts from TG1 cultures including soluble VHH). The antigen used for ELISA screening was the same as the one used for immunization, using uncoated blocked wells as negative control.
Regarding B1, the ELISA ratio coated/uncoated came out at 12.1.
Same read-out and setting: with B2 the figure was 10.7; with B3, 9.74.
Regarding B4, the ELISA ratio coated/uncoated came out at 21.5.
As for B5, the ELISA ratio coated/uncoated was 11.5.
Consider B6, for which the ELISA ratio coated/uncoated was determined as 23.2.
The same measure, in the same setting: with B7 the figure was 20.9.
Regarding B8, the ELISA ratio coated/uncoated came out at 7.54.
Still for that read-out and setting: as for B9, the figure is 32.7.
Regarding B10, the ELISA ratio coated/uncoated was determined as 12.2.
B11: the ELISA ratio coated/uncoated came out at 5.81.
Still for that read-out and setting: with B12 the figure was 4.36; with B13, 4.66; with B14, 9.9.
The same measure, in the same setting: with B15 the figure was 4.93; with B16, 6.57.
The same measure, in the same setting: as for B17, the figure is 4.74.
Consider B18, for which the ELISA ratio coated/uncoated amounted to 4.23.
Consider B19, for which the ELISA ratio coated/uncoated was 8.28.
On to B20, for which the ELISA ratio coated/uncoated stood at 5.33.
With B21, the ELISA ratio coated/uncoated came to 18.2.
The same measure, in the same setting: with B22 the figure was 11.4.
For B23, the ELISA ratio coated/uncoated amounted to 6.23.
On to B24, for which the ELISA ratio coated/uncoated came to 3.98.
Same read-out and setting: as for B25, the figure is 21.4; as for B26, 15; as for B27, 17.
For B28, the ELISA ratio coated/uncoated was found to be 7.07.
The same measure, in the same setting: as for B29, the figure is 9.79; as for B30, 7.83; as for B31, 31.3.
As for B32, the ELISA ratio coated/uncoated is 15.7.
Still for that read-out and setting: as for B33, the figure is 11.1.

The target is the same in the next assay. In words: ELISA, TG1 periplasmic extract on coated antigen.
Excerpt: as §1
For orientation: In an ELISA, binding on a coated surface is turned into a signal by an enzyme label.
As to B1, the ELISA coated is 2.64.
For the molecule B2, the ELISA coated was found to be 1.31.
The same measure, in the same setting: with B3 the figure was 2.68; with B4, 3.63; with B5, 1.62.
Consider B6, for which the ELISA coated amounted to 4.
Still for that read-out and setting: as for B7, the figure is 4; as for B8, 4.
Take B9: the ELISA coated turned out to be 3.75.
Still for that read-out and setting: as for B10, the figure is 4; as for B11, 4.
The same measure, in the same setting: as for B12, the figure is 3.74; as for B13, 2.24; as for B14, 3.22.
In the case of B15, the ELISA coated amounted to 2.43.
On the same count and under the same terms, as for B16, the figure is 0.664.
B17: the ELISA coated is 0.491.
On to B18, for which the ELISA coated came out at 3.89.
Same read-out and setting: as for B19, the figure is 3.79; as for B20, 4.
With B21, the ELISA coated worked out at 3.86.
Still for that read-out and setting: as for B22, the figure is 3.89; as for B23, 3.01.
Same read-out and setting: with B24 the figure was 3.76.
The same measure, in the same setting: as for B25, the figure is 4; as for B26, 1.7.
On to B27, for which the ELISA coated came to 1.88.
For the molecule B28, the ELISA coated came to 1.65.
On the same count and under the same terms, with B29 the figure was 4; with B30, 3.85.
On the same count and under the same terms, with B31 the figure was 2.8; with B32, 1.81.
Still for that read-out and setting: as for B33, the figure is 3.79.
